Assays:
CC(=O)NCCCNCCCCNCCCN = assay: steady-state oxygen consumption, oxygen electrode; assay type: biochemical, Saccharomyces cerevisiae; conditions: 1.2 mM oxygen, pH 9.0, 10% glycerol, 25 °C, pH 9.0
NCCCNCCCCNCCCN = assay: steady-state oxygen consumption, oxygen electrode; assay type: biochemical, Saccharomyces cerevisiae; conditions: 1.2 mM oxygen, pH 9.35, 10% glycerol, 25 °C, pH 9.35

**Q.** With “Fms1 (Saccharomyces cerevisiae S288C; D94N)” as the substance, how does the Km (CC(=O)NCCCNCCCCNCCCN) read?
**A.** 30 ± 5 µM

**Q.** And the kcat (CC(=O)NCCCNCCCCNCCCN)?
**A.** 9.7 ± 0.2 s⁻¹

**Q.** What about the kcat/Km (CC(=O)NCCCNCCCCNCCCN) of the same substance?
**A.** 320000 ± 50000 M⁻¹ s⁻¹

**Q.** What about the Km (NCCCNCCCCNCCCN) of the same substance?
**A.** 320 ± 88 µM

**Q.** What about the kcat (NCCCNCCCCNCCCN) of the same substance?
**A.** 2.0 ± 0.3 s⁻¹

**Q.** What does the source list for “Fms1 (Saccharomyces cerevisiae S288C; N195A)”?
**A.** Km (CC(=O)NCCCNCCCCNCCCN): 104 ± 14 µM; kcat (CC(=O)NCCCNCCCCNCCCN): 8.1 ± 0.2 s⁻¹; kcat/Km (CC(=O)NCCCNCCCCNCCCN): 78000 ± 13000 M⁻¹ s⁻¹; Km (NCCCNCCCCNCCCN): 127 ± 27 µM; kcat (NCCCNCCCCNCCCN): 4.9 ± 0.2 s⁻¹; kcat/Km (NCCCNCCCCNCCCN): 38500 ± 8300 M⁻¹ s⁻¹

Reference: paper PMC3548949
